Source: PMC9482650, “Quantitative fragmentomics allow affinity mapping of interactomes” (Nature Communications, 2022)
Numbering of substitutions follows the chain as printed.

Legend:
Test in all cases: holdup assay
Parameters in all cases: key: below the threshold = too weak to quantify, mostly under pKd 3.1 to 4
[1] = target: T1, LIN7B, Q9HAP6
T1 sequence (Q9HAP6 88-185, limits assumed, looked up): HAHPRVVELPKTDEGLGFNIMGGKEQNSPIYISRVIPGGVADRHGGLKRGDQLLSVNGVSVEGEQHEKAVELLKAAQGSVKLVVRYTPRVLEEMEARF

[2] = target: AHNAK1, Q09666
AHNAK1, Q09666, sequence (Q09666 4-100): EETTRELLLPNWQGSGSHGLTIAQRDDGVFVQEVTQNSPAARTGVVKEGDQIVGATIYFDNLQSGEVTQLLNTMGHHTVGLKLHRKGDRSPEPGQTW

[3] = target: T2, GRIP1_5, Q9Y3R0
T2 sequence (Q9Y3R0 568-668, limits assumed, looked up): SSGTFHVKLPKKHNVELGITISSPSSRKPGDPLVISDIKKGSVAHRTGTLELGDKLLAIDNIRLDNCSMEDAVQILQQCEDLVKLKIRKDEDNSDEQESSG

[4] = target: T3, NHERF3_4, Q5T2W1
T3 sequence (Q5T2W1 373-468, limits assumed, looked up): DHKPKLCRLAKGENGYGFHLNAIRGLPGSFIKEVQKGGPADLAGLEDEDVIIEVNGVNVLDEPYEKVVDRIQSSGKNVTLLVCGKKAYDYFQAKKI

[5] = target: TJP2_1, Q9UDY2
TJP2_1, Q9UDY2, sequence (Q9UDY2 24-128): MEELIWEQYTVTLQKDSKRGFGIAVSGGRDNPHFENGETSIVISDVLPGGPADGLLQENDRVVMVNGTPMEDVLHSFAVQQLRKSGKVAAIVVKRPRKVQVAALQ

[6] = target: T4, CARD11, Q9BXL7
T4 sequence (Q9BXL7 662-765, limits assumed, looked up): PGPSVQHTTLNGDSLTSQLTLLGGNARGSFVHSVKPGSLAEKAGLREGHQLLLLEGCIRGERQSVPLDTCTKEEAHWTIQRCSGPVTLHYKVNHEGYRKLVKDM

[7] = target: T5, SNTG1, Q9NSN8
T5 sequence (Q9NSN8 52-150, limits assumed, looked up): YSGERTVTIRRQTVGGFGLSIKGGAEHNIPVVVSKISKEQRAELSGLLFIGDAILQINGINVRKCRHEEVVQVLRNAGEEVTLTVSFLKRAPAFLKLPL

[8] = target: MAGI1_1, Q96QZ7
MAGI1_1, Q96QZ7, sequence (Q96QZ7 1-106): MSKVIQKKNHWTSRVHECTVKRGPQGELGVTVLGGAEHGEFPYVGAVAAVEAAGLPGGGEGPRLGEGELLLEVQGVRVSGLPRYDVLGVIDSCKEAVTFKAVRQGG

[9] = target: T6, LNX2_3, Q8N448
T6 sequence (Q8N448 463-564, limits assumed, looked up): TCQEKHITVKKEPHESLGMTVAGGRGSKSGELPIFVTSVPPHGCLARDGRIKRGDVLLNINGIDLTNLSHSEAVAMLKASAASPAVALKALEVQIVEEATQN

[10] = target: PDZRN4_1, Q6ZMN7
PDZRN4_1, Q6ZMN7, sequence (Q6ZMN7 213-318): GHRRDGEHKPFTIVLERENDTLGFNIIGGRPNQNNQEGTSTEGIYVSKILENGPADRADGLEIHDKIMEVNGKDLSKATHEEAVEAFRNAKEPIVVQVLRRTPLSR

[11] = target: GRID2IP_1, A4D2P6
GRID2IP_1, A4D2P6, sequence (A4D2P6 1-87): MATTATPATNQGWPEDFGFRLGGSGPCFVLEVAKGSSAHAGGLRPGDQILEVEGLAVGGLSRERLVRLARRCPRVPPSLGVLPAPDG

[12] = target: T7, LIN7A, O14910
T7 sequence (O14910 103-200, limits assumed, looked up): T1 sequence (Q9HAP6 88-185, limits assumed, looked up) with A2S, I20V, V35I, D42E, Q65H, Q77K, G78D, R89K

[13] = target: MAGI2_6, Q86UL8
MAGI2_6, Q86UL8, sequence (Q86UL8 1141-1229): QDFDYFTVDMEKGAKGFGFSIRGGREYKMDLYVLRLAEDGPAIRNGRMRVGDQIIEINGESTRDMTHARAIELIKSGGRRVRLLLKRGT

[14] = target: T8, ARHGAP21, Q5T5U3
T8 sequence (Q5T5U3 45-169, limits assumed, looked up): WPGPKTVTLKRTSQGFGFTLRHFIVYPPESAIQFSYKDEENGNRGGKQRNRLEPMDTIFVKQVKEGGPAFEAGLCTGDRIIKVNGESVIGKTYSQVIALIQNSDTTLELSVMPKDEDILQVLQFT

[15] = target: GRASP, Q7Z6J2
GRASP, Q7Z6J2, sequence (Q7Z6J2 96-193): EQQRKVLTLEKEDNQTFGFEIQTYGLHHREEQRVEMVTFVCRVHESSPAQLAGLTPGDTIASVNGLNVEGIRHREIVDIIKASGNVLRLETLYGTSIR

[16] = target: PICK1, Q9NRD5
PICK1, Q9NRD5, sequence (Q9NRD5 17-115): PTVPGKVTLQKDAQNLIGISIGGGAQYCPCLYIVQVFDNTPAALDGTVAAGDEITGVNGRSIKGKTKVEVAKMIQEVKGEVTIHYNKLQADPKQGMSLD

[17] = target: Inadl_1, Q8NI35
Inadl_1, Q8NI35, sequence (Q8NI35 113-229): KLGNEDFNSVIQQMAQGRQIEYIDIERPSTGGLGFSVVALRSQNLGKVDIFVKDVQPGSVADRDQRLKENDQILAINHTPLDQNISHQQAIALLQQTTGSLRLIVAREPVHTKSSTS

[18] = target: T9, SNTB1, Q13884
T9 sequence (Q13884 107-205, limits assumed, looked up): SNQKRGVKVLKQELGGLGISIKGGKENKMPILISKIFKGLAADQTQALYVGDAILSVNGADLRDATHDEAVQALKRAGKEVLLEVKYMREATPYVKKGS

[19] = target: T10, TIAM2, Q8IVF5
T10 sequence (Q8IVF5 885-986, limits assumed, looked up): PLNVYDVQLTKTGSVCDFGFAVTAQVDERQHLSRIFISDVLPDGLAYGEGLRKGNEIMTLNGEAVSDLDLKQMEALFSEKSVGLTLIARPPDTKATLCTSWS

[20] = target: T11, LRRC7, Q96NW7
T11 sequence (Q96NW7 1440-1537, limits assumed, looked up): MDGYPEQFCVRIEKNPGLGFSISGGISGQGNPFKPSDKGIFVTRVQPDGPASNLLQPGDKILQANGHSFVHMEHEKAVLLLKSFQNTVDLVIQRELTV

[21] = target: IL16_4, Q14005
IL16_4, Q14005, sequence (Q14005 1229-1329): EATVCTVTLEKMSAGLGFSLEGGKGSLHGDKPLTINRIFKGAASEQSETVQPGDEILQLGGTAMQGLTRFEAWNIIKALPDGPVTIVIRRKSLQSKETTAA

[22] = target: Inadl_9, Q8NI35
Inadl_9, Q8NI35, sequence (Q8NI35 1530-1615): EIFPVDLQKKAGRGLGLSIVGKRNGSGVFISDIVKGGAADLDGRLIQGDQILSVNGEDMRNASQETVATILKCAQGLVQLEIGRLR

[23] = target: T12, MPDZ_5, O75970
T12 sequence (O75970 695-796, limits assumed, looked up): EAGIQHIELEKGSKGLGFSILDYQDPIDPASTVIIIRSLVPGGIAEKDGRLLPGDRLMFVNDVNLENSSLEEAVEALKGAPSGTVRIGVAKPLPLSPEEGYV

[24] = target: T13, HTRA3, P83110
T13 sequence (P83110 354-453, limits assumed, looked up): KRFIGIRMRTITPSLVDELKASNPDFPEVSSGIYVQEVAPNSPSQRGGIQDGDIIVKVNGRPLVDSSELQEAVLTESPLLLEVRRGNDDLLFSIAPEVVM

[25] = plain residues with an end cap or a label only (N-terminal biotin on a linker: ttds)
[26] = plain residues with an end cap or a label only (N-terminal biotin on a linker: ado-ado)

Binder: DPRNTQTSQI [ABRAXAS2, Q15018]
- pKd [1, 25]: below the threshold
- pKd [2, 25]: 3.53
- pKd [3, 25]: 3.66
- pKd [4, 25]: below the threshold
- pKd [5, 25]: below the threshold
- pKd [6, 25]: below the threshold
- pKd [7, 25]: below the threshold
- pKd [8, 25]: below the threshold
- pKd [9, 25]: below the threshold
- pKd [10, 25]: 3.56
- pKd [11, 25]: below the threshold
- pKd [12, 25]: below the threshold
- pKd [13, 25]: below the threshold
- pKd [14, 25]: below the threshold
- pKd [15, 25]: 3.95
- pKd [16, 25]: below the threshold
- pKd [17, 25]: 3.72
- pKd [18, 25]: 3.96
- pKd [19, 25]: below the threshold
- pKd [20, 25]: below the threshold
- pKd [21, 25]: 3.66
- pKd [22, 25]: below the threshold
- pKd [23, 25]: below the threshold
- pKd [24, 25]: below the threshold

Binder: TETASVCTKV [SLC23A1, Q9UHI7]
- pKd [1, 26]: below the threshold
- pKd [2, 26]: below the threshold
- pKd [3, 26]: below the threshold
- pKd [4, 26]: 3.7
- pKd [5, 26]: 3.72
- pKd [6, 26]: below the threshold
- pKd [7, 26]: 3.76
- pKd [8, 26]: below the threshold
- pKd [9, 26]: below the threshold
- pKd [10, 26]: below the threshold
- pKd [11, 26]: 3.97
- pKd [12, 26]: below the threshold
- pKd [13, 26]: 3.69
- pKd [14, 26]: 3.94
- pKd [15, 26]: 4.43
- pKd [16, 26]: 4.24
- pKd [17, 26]: below the threshold
- pKd [18, 26]: 4.17
- pKd [19, 26]: below the threshold
- pKd [20, 26]: below the threshold
- pKd [21, 26]: 3.55
- pKd [22, 26]: below the threshold
- pKd [23, 26]: below the threshold
- pKd [24, 26]: below the threshold

Binder: FVHPILQSAV [PRKCA, P17252]
- pKd [1, 26]: below the threshold
- pKd [2, 26]: below the threshold
- pKd [3, 26]: below the threshold
- pKd [4, 26]: below the threshold
- pKd [5, 26]: below the threshold
- pKd [6, 26]: below the threshold
- pKd [7, 26]: 4.35
- pKd [8, 26]: below the threshold
- pKd [9, 26]: below the threshold
- pKd [10, 26]: 3.92
- pKd [11, 26]: below the threshold
- pKd [12, 26]: below the threshold
- pKd [13, 26]: 3.66
- pKd [14, 26]: 3.84
- pKd [15, 26]: 5.13
- pKd [16, 26]: below the threshold
- pKd [17, 26]: below the threshold
- pKd [18, 26]: 4.32
- pKd [19, 26]: below the threshold
- pKd [20, 26]: 3.58
- pKd [21, 26]: below the threshold
- pKd [22, 26]: below the threshold
- pKd [23, 26]: below the threshold
- pKd [24, 26]: below the threshold

Binder: LCALPKVTTV [AGMAT, Q9BSE5]
- pKd [1, 25]: 3.94
- pKd [2, 25]: below the threshold
- pKd [3, 25]: below the threshold
- pKd [4, 25]: 3.51
- pKd [5, 25]: 3.91
- pKd [6, 25]: below the threshold
- pKd [7, 25]: 4.39
- pKd [8, 25]: below the threshold
- pKd [9, 25]: below the threshold
- pKd [10, 25]: 3.75
- pKd [11, 25]: below the threshold
- pKd [12, 25]: 3.64
- pKd [13, 25]: 4.64
- pKd [14, 25]: below the threshold
- pKd [15, 25]: 4.47
- pKd [16, 25]: below the threshold
- pKd [17, 25]: 3.57
- pKd [18, 25]: 4.73
- pKd [19, 25]: below the threshold
- pKd [20, 25]: 3.63
- pKd [21, 25]: below the threshold
- pKd [22, 25]: 3.52
- pKd [23, 25]: below the threshold
- pKd [24, 25]: 3.71

Binder: SRRPRTETQV [HPV31-E6, P17386]
- pKd [1, 25]: 3.68
- pKd [2, 25]: below the threshold
- pKd [3, 25]: below the threshold
- pKd [4, 25]: below the threshold
- pKd [5, 25]: 3.66
- pKd [6, 25]: below the threshold
- pKd [7, 25]: 4.23
- pKd [8, 25]: below the threshold
- pKd [9, 25]: below the threshold
- pKd [10, 25]: 4.19
- pKd [11, 25]: below the threshold
- pKd [12, 25]: 3.51
- pKd [13, 25]: below the threshold
- pKd [14, 25]: below the threshold
- pKd [15, 25]: below the threshold
- pKd [16, 25]: below the threshold
- pKd [17, 25]: below the threshold
- pKd [18, 25]: 4.15
- pKd [19, 25]: below the threshold
- pKd [20, 25]: below the threshold
- pKd [21, 25]: below the threshold
- pKd [22, 25]: below the threshold
- pKd [23, 25]: below the threshold
- pKd [24, 25]: below the threshold

Binder: QFQYAKESYI [TAGAP, Q8N103]
- pKd [1, 25]: below the threshold
- pKd [2, 25]: below the threshold
- pKd [3, 25]: below the threshold
- pKd [4, 25]: below the threshold
- pKd [5, 25]: 4.43
- pKd [6, 25]: below the threshold
- pKd [7, 25]: 4.53
- pKd [8, 25]: below the threshold
- pKd [9, 25]: below the threshold
- pKd [10, 25]: 3.96
- pKd [11, 25]: below the threshold
- pKd [12, 25]: below the threshold
- pKd [13, 25]: 3.99
- pKd [14, 25]: below the threshold
- pKd [15, 25]: below the threshold
- pKd [16, 25]: below the threshold
- pKd [17, 25]: below the threshold
- pKd [18, 25]: 4.92
- pKd [19, 25]: below the threshold
- pKd [20, 25]: below the threshold
- pKd [21, 25]: below the threshold
- pKd [22, 25]: 3.5
- pKd [23, 25]: below the threshold
- pKd [24, 25]: 3.76
